Data: US20180208664A1 (APOGENIX, published 2018)
Ends that are not written are not given here.

T1: epitope-comprising peptide YMRNSKYPQD (also: coupled to BSA)
T1 peptide: YMRNSKYPQD

T2: epitope-comprising peptide YMRNSKYPQD (also: coupled to BSA)
T2 peptide: YMRNSKYPQD

T3: peptide C-YMRNSKY (also: immobilized to BSA or ovalbumin)
T3 construct: Printed as 'C-YMRNSKY'; the leading C is read as an added cysteine
T3 peptide: CYMRNSKY

T4: APG707 (LIGHT-RB69) (human)
T4 construct: Structurally related TNF-superfamily protein with the same trimerisation scaffold as APG296; also called human LIGHT (APG707)
T4 chain: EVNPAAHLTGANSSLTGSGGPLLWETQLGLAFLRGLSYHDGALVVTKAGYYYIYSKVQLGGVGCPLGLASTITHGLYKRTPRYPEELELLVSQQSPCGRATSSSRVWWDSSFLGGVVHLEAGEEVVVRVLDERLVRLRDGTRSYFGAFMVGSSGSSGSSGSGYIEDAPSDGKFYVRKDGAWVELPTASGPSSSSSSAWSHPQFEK

T5: APG296 (human CD95L-RB69) (human)
T5 construct: also called recombinant CD95L; human CD95L (APG296)
T5 chain: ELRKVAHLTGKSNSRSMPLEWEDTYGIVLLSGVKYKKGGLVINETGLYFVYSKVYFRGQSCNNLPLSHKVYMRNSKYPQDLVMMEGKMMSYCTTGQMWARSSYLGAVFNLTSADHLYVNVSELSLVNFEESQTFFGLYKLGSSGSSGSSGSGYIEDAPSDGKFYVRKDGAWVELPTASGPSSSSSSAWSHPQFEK

T6: APG293 (human CD95L-T4) (human)
T6 chain: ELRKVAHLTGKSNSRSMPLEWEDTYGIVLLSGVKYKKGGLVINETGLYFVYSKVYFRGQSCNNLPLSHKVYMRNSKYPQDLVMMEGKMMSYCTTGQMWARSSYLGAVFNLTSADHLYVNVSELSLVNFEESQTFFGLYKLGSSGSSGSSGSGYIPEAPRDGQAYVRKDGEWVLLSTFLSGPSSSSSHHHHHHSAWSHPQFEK

B1: rabbit monoclonal anti-CD95L antibody clone 119-4 (antibody, V domains shown)
VH: QSLEESGGDLVKPGGTLTLTCTTSGFSFSDHYWMCWVRQAPGKGLEWIACIYTADSDSYYASWAKGRFTISKTSSTTVTLQMTSLTAADTATYFCARNGAYAGGPYGDLWGPGTLVTVSS
VL: DIVMTQTPSSVEAAVGGTVTIKCQASQSIRTSLVWYQQKPGQPPKLLIYKASDLPSGVPSRFKGSGSGTQFTLTISDLECADAATYYCQSYDFRDTINNGHSFGGGTEVVVKG
notes: Rabbit monoclonal IgG from a hybridoma subclone, detected with anti-rabbit IgG; Only VH and VL are tied to the clone by name; also called mAb119-4
B2: rabbit monoclonal anti-CD95L antibody clone 145-12 (antibody, V domains shown)
VH: QSLEESGGDLVKPGASLTLTCTASGFSFSSGYDMCWVRQAPGKGLEWIACIDTDNDATYYASWAKGRFTISKPSSTTVLLQITSLTAADTATYFCATTHGDYVAFKLWGPGTLVTVSS
VL: QVLTQTASSVSAAVGGTVTINCQSSQSVYKNNDLSWYQQKPRQPPKLLIYQASKLASGVPSRFKGSGSGTQFTLTIGDLECDDGATYYCAGGYTASIYAFGGGTEVVVKG
notes: Rabbit monoclonal IgG from a hybridoma subclone; Only VH and VL are tied to the clone by name; also called mAB145-12; mAb145-12

What was measured:
[1] = target: T1, epitope-comprising peptide YMRNSKYPQD; test: QCM (Attana A100), peptide-BSA immobilized, antibody as analyte
Method: The A100 allows to investigate molecular interactions in real-time based on the Quartz Crystal Microbalance (QCM) technique. For this purpose, the respective epitope comprising peptide was coupled to BSA and subsequently immobilized to the surface of a carboxyl-activated QCM-chip. […] Binding (kₒₙ) and dissociation (koff) was analyzed in real time, and the respective KD was calculated (see table in FIG. 16).

[2] = target: T2, epitope-comprising peptide YMRNSKYPQD; test: QCM; immobilized BSA-coupled peptide
[3] = target: T3, peptide C-YMRNSKY; test: peptide ELISA, peptide on BSA or ovalbumin coated
Method: (§1) Binding of the rabbit monoclonal antibody was detected by incubation with goat anti rabbit IgG-Peroxidase (Sigma; dilution 1:5000) and subsequent detection of the converted Peroxidase-substrate TMBone at a wavelength of 450 nm in an ELISA reader (FIG. 13).
Binding of the rabbit monoclonal antibody was detected by incubation with goat anti rabbit IgG-Peroxidase (Sigma; dilution 1:5000) and subsequent detection of the converted Peroxidase-substrate TMBone at a wavelength of 450 nm in an ELISA reader (FIG. 14).

[4] = target: T4, APG707 (LIGHT-RB69); test: competition ELISA, APG296 coated, APG707 as soluble competitor
Method: as §1, with “For the competition ELISA, 96-well microtiter plates were coated with 10 μg/ml APG296 (CD95L-RB69). […] Binding” for “Binding”, “antibodies” for “antibody”, “6).” for “13).”

[5] = target: T5, APG296 (human CD95L-RB69); test: ELISA, APG296 coated
[6] = target: T6, APG293 (human CD95L-T4); test: cell-based or functional assay

Binder | binding result [1] | Kd [2] [nM] | binding result [3] | binding result [4] | binding result [5] | EC50, Assay 1: antagonism of CD95L-T4-induced apoptosis on Jurkat A3 cells [6] [µg/mL] | EC50, Assay 2: antagonism of CD95L-T4-induced apoptosis on Jurkat A3 cells [6] [µg/mL] | EC50, Assay 3: antagonism of CD95L-T4-induced apoptosis on Jurkat A3 cells [6] [µg/mL] | EC50, Assay 4: antagonism of CD95L-T4-induced apoptosis on Jurkat A3 cells [6] [µg/mL] | EC50, Mean: antagonism of CD95L-T4-induced apoptosis on Jurkat A3 cells [6] [µg/mL]
B1 | binds | 1.2 | no binding (tested: 2 µg/ml) | no binding (tested: 100 µg/ml) | – | – | – | – | – | –
B2 | binds | 7.22 | no binding (tested: 2 µg/ml) | no binding (tested: 100 µg/ml) | binds | 0.187 | 0.198 | 0.225 | 0.192 | 0.201
